Target: SpyTag-MBP (Streptococcus pyogenes)
Experiment: covalent adduct formation by SDS-PAGE densitometry

full-length SpyCatcher (as used in the reaction assay of Fig. 4b) (domain or fragment)
percent covalent complex formation after 1 min: 40% | percent covalent complex formation after 10 min: 65%

Reference: paper PMC3959856
